Measurements: PMC2959088

Molecular target: human cathepsin L (human)
Assay: enzyme inhibition assay (residual activity on the fluorogenic substrate Z-Phe-Arg-MCA); cathepsin B or L (0.3 nM) incubated 5 min at 37°C with varied inhibitor in 100 mM sodium acetate pH 5.5, 2.5 mM DTT; substrate 0.01 mM; triplicate; Ki(app) by non linear regression (GraFit), Ki by Morrison's procedure

- Ki: 730 pM
B1: Oryzacystatin-1 (natural protein)
chain: MSSDGGPVLGGVEPVGNENDLHLVDLARFAVTEHNKKANSLLEFEKLVSVKQQVVAGTLYYFTIEVKEGDAKKLYEAKVWEKPWMDFKELQEFKPVDASANA
